T1: cardiac LC20 (Homo sapiens, UniProt P10916)
T1 construct: using isolated cardiac myofibrils and associated proteins; from tissue
T1 sequence (P10916 1-166): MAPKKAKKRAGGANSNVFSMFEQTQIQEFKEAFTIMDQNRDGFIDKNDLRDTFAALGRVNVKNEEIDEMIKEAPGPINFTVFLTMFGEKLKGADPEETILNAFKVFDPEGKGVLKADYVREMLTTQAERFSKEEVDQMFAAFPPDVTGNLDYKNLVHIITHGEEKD

B1: PAK-phosphorylated caldesmon: caldesmon phosphorylated by PAK (protein, UniProt P12957 1-771, looked up)
Caldesmon: MDDFERRRELRRQKREEMRLEAERLSYQRNDDDEEEAARERRRRARQERLRQKEEGDVSGEVTEKSEVNAQNSVAEEETKRSTDDEAALLERLARREERRQKRLQEALERQKEFDPTITDGSLSVPSRREVNNVEENEITGKEEKVETRQGRCEIEETETVTKSYQRNNWRQDGEEEGKKEEKDSEEEKPKEVPTEENQVDVAVEKSTDKEEVVETKTLAVNAENDTNAMLEGEQSITDAADKEKEEAEKEREKLEAEEKERLKAEEEKKAAEEKQKAEEEKKAAEERERAKAEEEKRAAEERERAKAEEERKAAEERERAKAEEERKAAEERAKAEEERKAAEERAKAEEERKAAEERAKAEKERKAAEERERAKAEEEKRAAEEKARLEAEKLKEKKKMEEKKAQEEKAQANLLRKQEEDKEAKVEAKKESLPEKLQPTSKKDQVKDNKDKEKAPKEEMKSVWDRKRGVPEQKAQNGERELTTPKLKSTENAFGRSNLKGAANAEAGSEKLKEKQQEAAVELDELKKRREERRKILEEEEQKKKQEEAERKIREEEEKKRMKEEIERRRAEAAEKRQKVPEDGVSEEKKPFKCFSPKGSSLKIEERAEFLNKSAQKSGMKPAHTTAVVSKIDSRLEQYTSAVVGNKAAKPAKPAASDLPVPAEGVRNIKSMWEKGNVFSSPGGTGTPNKETAGLKVGVSSRINEWLTKTPEGNKSPAPKPSDLRPGDVSGKRNLWEKQSVEKPAASSSKVTATGKKSETNGLRQFEKEP
modifications: phosphorylated by PAK
B2: caldesmon: unphosphorylated smooth muscle caldesmon purified from chicken gizzard (protein, UniProt P12957 1-771, looked up)
Caldesmon: B1 Caldesmon

How the values were obtained:
[1] = target: T1, cardiac LC20; assay: In vitro phosphorylation of cardiac LC20; type: biochemical
Procedure: In vitro phosphorylation of intact smooth, skeletal, cardiac, platelet, and Dictyostelium myosin and isolated LC20, caldesmon, and caldesmon fragments, and cardiac and skeletal Tn were carried out at 25° C. in 10 mM Tris, pH 7.0, 50 mM sodium chloride, 1 mM [γ^32P]ATP (5×10^5 cpm per nmol) or at 37° C. in the same buffer except containing 150 mM sodium chloride. Aliquots of the reaction mixture were analyzed for protein phosphorylation using Whatman P81 paper and SDS-gel electrophoresis/autoradiography as previously described (Childs, T. J. et al. 1992. J. Biol. Chem. 267:22853-22859). In the case of cardiac and skeletal Tn, the three Tn subunits (TnI, TnT, and TnC) were separated by reversed phase HPLC. The individual subunits were analyzed for incorporation of ^32P (i.e., phosphorylation by PAK) by SDS-PAGE and autoradiography and direct counting.
Phosphorylated amino acids were identified by thin-layer electrophoresis after partial hydrolysis of the phosphorylated proteins in 6 N hydrochloric acid as previously described (Childs, T. J. et al. 1992. J. Biol. Chem. 267:22853-22859; Mak, A. S. et al. 1991. J. Biol. Chem. 266:19971-19975; Mak, A. S. et al. 1991. J. Biol. Chem. 266:6678-6681). […]

[2] = tested on: actin-tropomyosin; assay: Actin-tropomyosin binding assay (centrifugation); conditions: FIG. 5
Procedure: To quantitate the amount of smooth muscle caldesmon and smooth muscle tropomyosin bound to the skeletal actin thin filament (>95% amino acid homology to smooth muscle actin), centrifugation studies were carried out in binding buffer consisting of 20 mM Tris-HCl pH 7.2, 10 mM KCl, 5 mM MgCl2 and 1 mM DTT. The concentration of actin was 5 nmole/200 μl (˜25 μM) and the mole ratio of actin to tropomyosin was 7:2. Increasing quantities of unphosphorylated or phosphorylated caldesmon were added to the actin-tropomyosin mixture. Protein concentrations were determined by the Lowry method or by absorbance at 280 nm. Samples were spun for 30 min at approximately 95,000 rpm, resulting in the pelleting of over 95% of the actin. The obtained pellets were dissolved in 100 μl of 0.05% aqueous trifluroacetic acid (TFA) and injected on a Zorbax C8 SB300 reversed-phase column (4.6 mm×250 mm) on a Varian HPLC system (Star series). The various proteins were eluted using a 2% B/min linear A/B gradient with a 5 min initial isocratic hold, where solvent A is 0.05% aqueous TFA and solvent B is 0.05% TFA in acetonitrile. The flow rate was 1 ml/min. The peak areas were determined at 210 nm and converted to nanomoles using a standard curve obtained for each protein. […] The experiments were done in triplicate and the standard deviation calculated.

[3] = target: smooth muscle myosin ATPase (Gallus gallus, UniProt P02607+P10587); assay: Actin-tropomyosin activated ATPase activity of smooth muscle subfragment 1 (S1); type: biochemical; conditions: FIG. 6
Chain of smooth muscle myosin ATPase (P10587 84-789 limits assumed): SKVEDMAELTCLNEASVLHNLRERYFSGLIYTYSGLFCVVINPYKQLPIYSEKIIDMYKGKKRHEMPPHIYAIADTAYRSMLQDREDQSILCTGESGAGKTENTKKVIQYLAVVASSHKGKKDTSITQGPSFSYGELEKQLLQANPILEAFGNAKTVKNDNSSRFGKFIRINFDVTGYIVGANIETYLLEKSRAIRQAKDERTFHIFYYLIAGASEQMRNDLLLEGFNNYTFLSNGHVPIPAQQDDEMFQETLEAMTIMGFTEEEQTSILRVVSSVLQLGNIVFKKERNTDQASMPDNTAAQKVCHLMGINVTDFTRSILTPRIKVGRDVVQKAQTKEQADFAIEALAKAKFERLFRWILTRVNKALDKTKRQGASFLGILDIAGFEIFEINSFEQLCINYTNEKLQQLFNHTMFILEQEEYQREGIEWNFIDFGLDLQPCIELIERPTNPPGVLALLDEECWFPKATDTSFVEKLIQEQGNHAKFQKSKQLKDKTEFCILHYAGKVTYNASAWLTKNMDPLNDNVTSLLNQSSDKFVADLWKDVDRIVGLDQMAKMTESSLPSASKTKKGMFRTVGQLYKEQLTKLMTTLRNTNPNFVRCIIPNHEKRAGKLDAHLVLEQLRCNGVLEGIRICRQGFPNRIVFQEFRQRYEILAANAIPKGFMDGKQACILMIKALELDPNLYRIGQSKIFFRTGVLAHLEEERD
Chain of smooth muscle myosin ATPase (P02607 2-151 limits assumed): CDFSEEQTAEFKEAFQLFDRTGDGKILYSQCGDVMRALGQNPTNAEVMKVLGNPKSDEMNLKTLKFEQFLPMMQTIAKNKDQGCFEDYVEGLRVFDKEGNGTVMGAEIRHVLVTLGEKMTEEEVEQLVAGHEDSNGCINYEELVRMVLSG
Procedure: Reactions consisted of 10 μM actin, 2 μM tropomyosin, 0.5 μM S1, and variable concentrations of unphosphorylated and phosphorylated caldesmon. The buffer contained 40 mM Tris-HCl pH 7.8, 50 mM KCl, 5 mM MgCl2, 1 mM DTT at 37° C. Reactions were performed in a 96 well microtitre plate, triggered by the addition of 4 mM ATP. The phosphate assay was performed according to the method of Chifflet, S. et al. 1988. (Anal. Biochem. 168:1-4). Briefly, reactions were terminated by the addition of an equal volume (100 μL) of reagent which contained 6% (w/v) SDS, 3% (w/v) ascorbic acid, 1M HCl, 0.5% (w/v) ammonium molybdate. The mixture was incubated for 5 minutes prior to the addition of a second reagent which contained 2% sodium citrate, 2% sodium m-arsenite, and 2% acetic acid. Blue colour developed quickly over 5 minutes. Microtitre plates were read at 650 nm on an E-max ELISA plate reader (Molecular Dynamics, Sunnyvale Calif.). Phosphate was determined by comparing experimental values to standard phosphate values obtained through dilution of phosphate-buffered saline (PBS).

| Molecule | phosphorylation of cardiac LC20 [1] | change in affinity of caldesmon for actin(-tropomyosin), phosphorylated vs unphosphorylated [2] | inhibition of smooth muscle myosin ATPase activity [3] |
| --- | --- | --- | --- |
| MLCK: myosin light chain kinase purified from chicken gizzard | 0.2 mol phosphate per mol protein | – | – |
| B1 | – | approximately two-fold reduction | inhibition was clearly released |
| B2 | – | – | inhibited |
